Literature values in article PMC3683042, “Solution Structure and Peptide Binding of the PTB Domain from the AIDA1 Postsynaptic Signaling Scaffolding Protein” (PLoS ONE, 2013).

Assays:
[1] = molecular target: APP 14 aa peptide (Homo sapiens) (UniProt P05067)
[2] = molecular target: APP 32 aa peptide (Homo sapiens) (UniProt P05067)
[3] = molecular target: APP 11 aa peptide (Homo sapiens) (UniProt P05067)
Sequence of APP 11 aa peptide (Homo sapiens) (P05067 whole entry, looked up, tested part not stated): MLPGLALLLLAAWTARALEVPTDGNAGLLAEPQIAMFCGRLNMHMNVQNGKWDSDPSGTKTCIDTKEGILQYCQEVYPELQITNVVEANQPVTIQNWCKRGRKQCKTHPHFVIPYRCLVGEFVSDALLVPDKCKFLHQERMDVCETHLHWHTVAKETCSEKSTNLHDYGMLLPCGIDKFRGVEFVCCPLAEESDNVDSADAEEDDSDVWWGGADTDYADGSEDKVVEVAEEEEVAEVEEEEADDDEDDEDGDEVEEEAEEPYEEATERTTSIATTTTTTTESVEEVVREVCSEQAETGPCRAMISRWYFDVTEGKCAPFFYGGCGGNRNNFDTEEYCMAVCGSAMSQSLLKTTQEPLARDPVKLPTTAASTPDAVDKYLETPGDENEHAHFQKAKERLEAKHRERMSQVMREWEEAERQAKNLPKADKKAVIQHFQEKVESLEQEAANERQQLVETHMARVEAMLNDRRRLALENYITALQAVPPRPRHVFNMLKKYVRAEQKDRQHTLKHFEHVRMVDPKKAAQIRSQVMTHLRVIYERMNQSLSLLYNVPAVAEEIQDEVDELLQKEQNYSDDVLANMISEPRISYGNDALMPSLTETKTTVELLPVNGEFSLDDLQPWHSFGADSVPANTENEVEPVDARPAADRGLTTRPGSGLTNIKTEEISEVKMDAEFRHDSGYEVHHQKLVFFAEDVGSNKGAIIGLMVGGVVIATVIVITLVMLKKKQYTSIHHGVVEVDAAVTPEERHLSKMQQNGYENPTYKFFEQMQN

Sequence of Fe65 PTB2 (O00213 542-699): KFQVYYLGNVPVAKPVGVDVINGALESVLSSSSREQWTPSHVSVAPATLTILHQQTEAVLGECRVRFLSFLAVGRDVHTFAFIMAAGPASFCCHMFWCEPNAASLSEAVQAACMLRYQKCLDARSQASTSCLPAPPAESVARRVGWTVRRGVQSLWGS
Sequence of APP 32 aa peptide (Homo sapiens) (P05067 739-770): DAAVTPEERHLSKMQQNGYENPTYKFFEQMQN
Sequence of X11 PTB (Q02410 457-643): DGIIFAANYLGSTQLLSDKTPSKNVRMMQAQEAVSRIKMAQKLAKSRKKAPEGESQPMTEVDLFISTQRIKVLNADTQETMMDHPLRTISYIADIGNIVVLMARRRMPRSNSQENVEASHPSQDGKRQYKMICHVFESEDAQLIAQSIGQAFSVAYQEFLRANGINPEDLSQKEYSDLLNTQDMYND

Row | Substance | Kd [1] | Kd [2] | Kd [3]
1 | X11 PTB (from UniProt Q02410) | 300 nM | – | –
2 | Fe65 PTB2 (from UniProt O00213) | – | 200 nM | 100000 nM
